Assay results reported in article doi:10.1101/152850 (bioRxiv, 2017).

Key:
SEC = molecular target: the molecule itself; test: SEC
IFIT1 wild-type [1] = molecular target: T1, IFIT1 wild-type (human, UniProt P09914 1-478); test: limited proteolysis
T1 sequence: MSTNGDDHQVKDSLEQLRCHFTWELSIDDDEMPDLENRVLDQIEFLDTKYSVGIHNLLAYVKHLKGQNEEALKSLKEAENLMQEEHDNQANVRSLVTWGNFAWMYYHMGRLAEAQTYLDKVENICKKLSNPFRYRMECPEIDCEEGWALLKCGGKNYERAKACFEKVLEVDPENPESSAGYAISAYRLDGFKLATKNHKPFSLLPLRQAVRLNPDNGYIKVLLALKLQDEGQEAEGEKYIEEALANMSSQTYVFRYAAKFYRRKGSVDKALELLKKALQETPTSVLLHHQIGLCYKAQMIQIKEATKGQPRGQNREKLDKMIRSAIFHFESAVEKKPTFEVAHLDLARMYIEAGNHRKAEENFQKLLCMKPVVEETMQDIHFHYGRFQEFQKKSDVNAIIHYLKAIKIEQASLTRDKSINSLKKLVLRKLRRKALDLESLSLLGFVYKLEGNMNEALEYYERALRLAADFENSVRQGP

IFIT1 wild-type [2] = molecular target: T1, IFIT1 wild-type; test: X-ray crystallography
IFIT1 wild-type [3] = molecular target: T1, IFIT1 wild-type; test: X-ray crystallography; remark: listed apart in the source
SEC-MALS = molecular target: the molecule itself; test: SEC-MALS

B1: IFIT5-IFIT1 chimera (IFIT5^i1TPR9): human IFIT5 α1-α21 (residues 1-435) and human IFIT1 α22-α23 (TPR9, residues 437-478) (other, UniProt Q13325 1-435, looked up)
chain: MSEIRKDTLKAILLELECHFTWNLLKEDIDLFEVEDTIGQQLEFLTTKSRLALYNLLAYVKHLKGQNKDALECLEQAEEIIQQEHSDKEEVRSLVTWGNYAWVYYHMDQLEEAQKYTGKIGNVCKKLSSPSNYKLECPETDCEKGWALLKFGGKYYQKAKAAFEKALEVEPDNPEFNIGYAITVYRLDDSDREGSVKSFSLGPLRKAVTLNPDNSYIKVFLALKLQDVHAEAEGEKYIEEILDQISSQPYVLRYAAKFYRRKNSWNKALELLKKALEVTPTSSFLHHQMGLCYRAQMIQIKKATHNRPKGKDKLKVDELISSAIFHFKAAMERDSMFAFAYTDLANMYAEGGQYSNAEDIFRKALRLENITDDHKHQIHYHYGRFQEFHRKSENTAIHHYLEALKVKDRSPLRTKLTSALKKLSTKRLCHNALDVLESLSLLGFVYKLEGNMNEALEYYERALRLAADFENSVRQGP
- stoichiometry N (SEC): 2

B2: IFIT2 (natural protein, UniProt P09913 1-472, looked up)
chain: MSENNKNSLESSLRQLKCHFTWNLMEGENSLDDFEDKVFYRTEFQNREFKATMCNLLAYLKHLKGQNEAALECLRKAEELIQQEHADQAEIRSLVTWGNYAWVYYHMGRLSDVQIYVDKVKHVCEKFSSPYRIESPELDCEEGWTRLKCGGNQNERAKVCFEKALEKKPKNPEFTSGLAIASYRLDNWPPSQNAIDPLRQAIRLNPDNQYLKVLLALKLHKMREEGEEEGEGEKLVEEALEKAPGVTDVLRSAAKFYRRKDEPDKAIELLKKALEYIPNNAYLHCQIGCCYRAKVFQVMNLRENGMYGKRKLLELIGHAVAHLKKADEANDNLFRVCSILASLHALADQYEDAEYYFQKEFSKELTPVAKQLLHLRYGNFQLYQMKCEDKAIHHFIEGVKINQKSREKEKMKDKLQKIAKMRLSKNGADSEALHVLAFLQELNEKMQQADEDSERGLESGSLIPSASSWNGE
- stoichiometry N (SEC): 2

Binder: AAAA (ssRNA, 5' Gppp cap (cap G not in strand)) [Gppp-oligoA (Gppp-AAAA)]
- binding result (IFIT1 wild-type [1]): binds

Binder: AAAA (ssRNA, 5' triphosphate) [PPP-oligoA (PPP-AAAA)]
- binding result (IFIT1 wild-type [2]): binds

Binder: AAAA (ssRNA, 5' m7Gppp cap (cap G not in strand)) [m7Gppp-oligoA (m7Gppp-AAAA)]
- binding result (IFIT1 wild-type [3]): binds

B3: human IFIT1, wild-type, full-length (residues 1-478) (natural protein, UniProt P09914 1-478, looked up)
chain: MSTNGDDHQVKDSLEQLRCHFTWELSIDDDEMPDLENRVLDQIEFLDTKYSVGIHNLLAYVKHLKGQNEEALKSLKEAENLMQEEHDNQANVRSLVTWGNFAWMYYHMGRLAEAQTYLDKVENICKKLSNPFRYRMECPEIDCEEGWALLKCGGKNYERAKACFEKVLEVDPENPESSAGYAISAYRLDGFKLATKNHKPFSLLPLRQAVRLNPDNGYIKVLLALKLQDEGQEAEGEKYIEEALANMSSQTYVFRYAAKFYRRKGSVDKALELLKKALQETPTSVLLHHQIGLCYKAQMIQIKEATKGQPRGQNREKLDKMIRSAIFHFESAVEKKPTFEVAHLDLARMYIEAGNHRKAEENFQKLLCMKPVVEETMQDIHFHYGRFQEFQKKSDVNAIIHYLKAIKIEQASLTRDKSINSLKKLVLRKLRRKALDLESLSLLGFVYKLEGNMNEALEYYERALRLAADFENSVRQGP
- stoichiometry N (SEC-MALS): 2

B4: human IFIT1 K448E (natural protein, UniProt P09914 1-478, looked up)
chain: MSTNGDDHQVKDSLEQLRCHFTWELSIDDDEMPDLENRVLDQIEFLDTKYSVGIHNLLAYVKHLKGQNEEALKSLKEAENLMQEEHDNQANVRSLVTWGNFAWMYYHMGRLAEAQTYLDKVENICKKLSNPFRYRMECPEIDCEEGWALLKCGGKNYERAKACFEKVLEVDPENPESSAGYAISAYRLDGFKLATKNHKPFSLLPLRQAVRLNPDNGYIKVLLALKLQDEGQEAEGEKYIEEALANMSSQTYVFRYAAKFYRRKGSVDKALELLKKALQETPTSVLLHHQIGLCYKAQMIQIKEATKGQPRGQNREKLDKMIRSAIFHFESAVEKKPTFEVAHLDLARMYIEAGNHRKAEENFQKLLCMKPVVEETMQDIHFHYGRFQEFQKKSDVNAIIHYLKAIKIEQASLTRDKSINSLKKLVLRKLRRKALDLESLSLLGFVYELEGNMNEALEYYERALRLAADFENSVRQGP
- binding result (SEC): binds
